According to article PMC8284803:
Where two headings read alike, the source gives them in different places.

B1: HJ (Holliday junction) (structured_DNA)
DNA 1: CTAGTATAGAGCCGGCGCGCCATGTCTAGATAGCGTTAGGTCTGCCGAATAGTACTACTCGGATCCCGAGCGAACCACGC
DNA 2: GCGTGGTTCGCTCGGGATCCGAGTAGTACTATTCGGCAGAGGATTCGAATAGGCCTAATCGAATTCCGCCATCGATGCAC
DNA 3: GTGCATCGATGGCGGAATTCGATTAGGCCTATTCGAATCCAGACGCGAGTAGATCTTCACGGTACCCGCGGTTACCCGTG
DNA 4: CACGGGTAACCGCGGGTACCGTGAAGATCTACTCGCGTCTCCTAACGCTATCTAGACATGGCGCGCCGGCTCTATACTAG
B2: gHJ (gapped HJ) (structured_DNA)
DNA 1: B1 DNA 1
DNA 2: B1 DNA 2
DNA 3: B1 DNA 3
DNA 4: CACGGGTAACCGCGGGTACCGTGAAGATCTACTCGCGTCTCCTAA
DNA 5: CCGGCTCTATACTAG
B3: 80mer with 5 nt gap (mixed)
DNA 1: B1 DNA 1
DNA 2: GCGTGGTTCGCTCGGGATCCGAGTAGTACTATTCGG
DNA 3: CTAACGCTATCTAGACATGGCGCGCCGGCTCTATACTAG
B4: 80mer with 10 nt gap (mixed)
DNA 1: B1 DNA 1
DNA 2: GCGTGGTTCGCTCGGGATCCGAGTAGTACTATTCG
DNA 3: CGCTATCTAGACATGGCGCGCCGGCTCTATACTAG
B5: 80mer with 20 nt gap (mixed)
DNA 1: B1 DNA 1
DNA 2: GCGTGGTTCGCTCGGGATCCGAGTAGTACT
DNA 3: TCTAGACATGGCGCGCCGGCTCTATACTAG
B6: 80mer with 40 nt gap (mixed)
DNA 1: B1 DNA 1
DNA 2: GCGTGGTTCGCTCGGGATCC
DNA 3: GCGCGCCGGCTCTATACTAG

What was measured:
Test in all cases: EMSA
[1] = target: hMSH4 (hMutSγ subunit);hMSH5 (hMutSγ subunit) (Homo sapiens;Homo sapiens, UniProt O15457;O43196 1-936;1-834, |)
[2] = target: T1, hMLH1 (hMutLγ subunit);hMLH3 (hMutLγ subunit) (Homo sapiens;Homo sapiens, UniProt P40692;Q9UHC1 1-756;1-1453, |)
[3] = target: T1, hMLH1 (hMutLγ subunit);hMLH3 (hMutLγ …); remark: listed apart in the source
[4] = target: T1, hMLH1 (hMutLγ subunit);hMLH3 (hMutLγ …); remark: listed apart in the source

Binder | Kd [2] [nM] | binding result [3] | other results
B1 | ~38 |  | binding result [1]: binds
B2 | ~16 |  | 
B3 |  | no binding | 
B4 |  | no binding | 
B5 |  | binds | 
B6 |  |  | binding result [4]: binds
